# Measured values taken from paper PMC6591361, “Recombinant production of human α2-macroglobulin variants and interaction studies with recombinant G-related α2-macroglobulin binding protein and latent transforming growth factor-β2” (Scientific Reports, 2019).
# T1: native authentic human α2-macroglobulin (human, UniProt P01023 24-1474, thioester bond intact (native form))
# T1 construct: human α2-macroglobulin, UniProt P01023, 1,474-residue precursor; as secreted it lacks the signal peptide (recombinant constructs begin at S24); Tetramer (680.6 kDa by SEC-MALLS); glycosylated; also called hα2M; native hα2M; source: purified from human blood plasma of individual donors (PEG 4,000 precipitation, zinc-chelating resin, IEC, SEC)
# T1 sequence (looked up): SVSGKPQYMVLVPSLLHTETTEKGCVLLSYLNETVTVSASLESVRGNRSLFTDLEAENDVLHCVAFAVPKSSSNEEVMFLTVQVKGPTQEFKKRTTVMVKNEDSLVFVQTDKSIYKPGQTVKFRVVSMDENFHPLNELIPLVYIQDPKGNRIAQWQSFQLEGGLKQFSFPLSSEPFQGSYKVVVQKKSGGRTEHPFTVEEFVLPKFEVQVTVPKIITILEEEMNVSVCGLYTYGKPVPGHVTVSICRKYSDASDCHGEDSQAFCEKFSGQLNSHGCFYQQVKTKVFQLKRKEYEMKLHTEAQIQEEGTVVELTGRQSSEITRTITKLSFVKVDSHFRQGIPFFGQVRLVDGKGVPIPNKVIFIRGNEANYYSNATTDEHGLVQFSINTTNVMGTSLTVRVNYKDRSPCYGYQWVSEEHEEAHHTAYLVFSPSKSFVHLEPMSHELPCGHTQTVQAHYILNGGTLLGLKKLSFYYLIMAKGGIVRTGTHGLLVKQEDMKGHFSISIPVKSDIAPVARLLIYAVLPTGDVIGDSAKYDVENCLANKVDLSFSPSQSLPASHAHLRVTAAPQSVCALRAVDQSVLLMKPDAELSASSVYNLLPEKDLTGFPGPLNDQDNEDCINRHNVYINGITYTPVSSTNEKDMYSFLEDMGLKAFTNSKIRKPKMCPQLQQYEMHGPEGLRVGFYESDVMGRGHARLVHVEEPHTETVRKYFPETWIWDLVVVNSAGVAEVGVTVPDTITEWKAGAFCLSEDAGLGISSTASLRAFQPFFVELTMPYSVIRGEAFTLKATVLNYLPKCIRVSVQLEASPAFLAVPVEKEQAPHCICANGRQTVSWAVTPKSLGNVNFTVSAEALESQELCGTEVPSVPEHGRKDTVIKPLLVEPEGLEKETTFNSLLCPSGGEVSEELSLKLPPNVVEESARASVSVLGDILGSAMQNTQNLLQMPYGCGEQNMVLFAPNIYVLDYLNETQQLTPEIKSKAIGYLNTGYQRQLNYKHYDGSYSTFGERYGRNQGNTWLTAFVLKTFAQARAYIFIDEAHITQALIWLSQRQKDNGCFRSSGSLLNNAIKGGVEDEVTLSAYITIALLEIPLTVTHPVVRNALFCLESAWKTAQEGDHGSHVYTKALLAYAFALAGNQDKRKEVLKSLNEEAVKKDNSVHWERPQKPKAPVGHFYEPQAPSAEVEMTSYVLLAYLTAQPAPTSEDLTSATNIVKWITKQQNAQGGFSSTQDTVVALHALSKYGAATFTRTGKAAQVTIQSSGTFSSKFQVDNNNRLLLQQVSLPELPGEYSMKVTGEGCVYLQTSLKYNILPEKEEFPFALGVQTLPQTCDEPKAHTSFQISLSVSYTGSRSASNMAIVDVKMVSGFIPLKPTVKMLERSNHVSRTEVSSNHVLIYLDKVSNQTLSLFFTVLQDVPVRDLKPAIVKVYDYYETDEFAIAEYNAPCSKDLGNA
# T2: methylamine-induced authentic human α2-macroglobulin (human, UniProt P01023 24-1474, thioester bond opened by methylamine, producing a free cysteine)
# T2 construct: human α2-macroglobulin, UniProt P01023; plasma protein as m1, induced form; Tetramer (684.1 kDa by SEC-MALLS); also called induced hα2M; induced authentic hα2M
# T2 sequence (looked up): T1 sequence (looked up)
# B1: Strep-tagged G-related α2M-binding protein (GRAB), V34-N181 (domain or fragment)
# chain: GAMVDSPIEQPRIIPNGGTLTNLLGNAPEKLALRNEERAIDELKKQAIEDKEATTAIEAASSDALEALADQTDALQSEEAAVVKADNAASDALEALADQTDALQSEEAEVVQSDNAASDAWEKAATPIALDVKKTKDTKPVVKKEERQNVN
# notes: residues left at the N-terminus after TEV cleavage, from the cloning strategy; also called Strep-tagged GRAB; pCri-H6-TEV-GRAB-STREP; source: E. coli BL21 (DE3), purified (Streptactin XT, IEC, SEC); not shown: His6, N-terminal, cleaved; Strep-tag, C-terminal, kept
# B2: G-related α2M-binding protein (GRAB), V34-N181, untagged (domain or fragment)
# chain: B1 chain
# notes: residues left at the N-terminus after TEV cleavage, from the cloning strategy; the theoretical mass of 15.8 kDa that it compares with fits the untagged form (surmise); also called pCri-H6-TEV-GRAB; source: E. coli BL21 (DE3), purified (Ni-NTA, TEV cleavage, reverse Ni-NTA, IEC, SEC); not shown: His6, N-terminal, cleaved
# What was measured:
# Conditions in all cases: both partners purified
# [1] = target: T1, native authentic human α2-macroglobulin; experiment: SPR; as a1, affinity analysis: steady-state responses (Req) against analyte concentration, 1:1 model
# [2] = target: T2, methylamine-induced authentic human …; experiment: as above
# [3] = target: T1, native authentic human α2-macroglobulin; experiment: SPR; Strep-tagged GRAB (9.7 nM) captured on Streptactin XT on a CM5 chip; analytes injected in multicycle runs (4–600 nM authentic hα2M, 75–1,200 nM N-hα2M and C-hα2M); HBNS (10 mM HEPES, 150 mM sodium chloride, pH 7.4), 37 °C; kinetic fit, 1:1 Langmuir model
# [4] = target: T1, native authentic human α2-macroglobulin; experiment: SEC-MALS; SEC-MALLS, Superose 6 10/300, buffer J (20 mM sodium phosphate, 150 mM sodium chloride, pH 7.4), 25 °C; GRAB to authentic hα2M at a molar ratio of 4:1; triplicate
# [5] = target: T2, methylamine-induced authentic human …; experiment: as above
Binder,Kd [1],Kd [2],Kd [3],koff [3],kon [3],stoichiometry N [4],stoichiometry N [5]
B1,34.5 nM,94.6 nM,14.3 nM,0.0019 s⁻¹,132000 M⁻¹ s⁻¹,–,–
B2,–,–,–,–,–,1.7 GRAB per hα2M tetramer,2 GRAB per hα2M tetramer
